Where a chain is given by its changes, count along the chain named. Each block holds one binder with its values, some of them ahead of it.
Assays:
[1] = molecular target: T1, recombinant protein containing hST2 extracellular domain with mouse antibody heavy chain Fc tag (hST2-ECD-mFc) (human); experiment: ELISA, plate coated with hST2-ECD-mFc
T1 construct: Used for SPR and for ELISA of chimeric and humanized antibodies; also called human ST2 antigen
T1 chain: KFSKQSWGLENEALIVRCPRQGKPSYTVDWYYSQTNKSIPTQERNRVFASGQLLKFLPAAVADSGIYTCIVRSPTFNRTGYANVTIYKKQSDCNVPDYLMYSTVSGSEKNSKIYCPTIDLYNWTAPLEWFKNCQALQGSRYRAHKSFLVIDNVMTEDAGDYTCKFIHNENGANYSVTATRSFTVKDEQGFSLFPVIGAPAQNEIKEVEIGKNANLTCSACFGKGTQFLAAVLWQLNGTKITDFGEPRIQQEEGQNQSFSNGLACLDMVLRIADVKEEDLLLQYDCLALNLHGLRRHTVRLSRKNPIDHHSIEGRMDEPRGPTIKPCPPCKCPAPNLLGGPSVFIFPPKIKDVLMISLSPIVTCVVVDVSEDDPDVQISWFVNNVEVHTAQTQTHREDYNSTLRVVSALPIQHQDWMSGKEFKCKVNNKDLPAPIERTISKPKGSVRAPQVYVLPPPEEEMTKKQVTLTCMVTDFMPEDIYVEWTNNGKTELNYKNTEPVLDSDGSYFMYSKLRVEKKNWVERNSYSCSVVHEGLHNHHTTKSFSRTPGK
Description: ST2 binding screening and analysis of antibodies were performed by ELISA using hST2-ECD-mFc (for assays of chimeric and humanized antibodies), hST2-ECD-hFc protein (for assays of hybridoma antibodies) and Cyno-ST2-his (Sino biological, 90915-C08H) as antigens. A high-adsorption 96-well plate (Costar, 9018) was coated with 2 µg/mL hST2-ECD-mFc or Cyno-ST2-his antigen at 100 µL/well and incubated overnight at 4° C. After the antigen not adsorbed was well washed off, the non-specific binding sites were blocked with a blocking buffer (PBS containing 2% bovine serum albumin). After the plate was washed three times with a washing buffer (PBS containing 0.05% (v/v) Tween 20), the anti-ST2 antibodies (serially diluted 3-fold from an initial concentration of 10 nM to 8 concentrations: 3.333 nM, 1.111 nM, 0.370 nM, 0.123 nM, 0.041 nM, 0.014 nM, 0.005 nM, and 0.002 nM) were added at 100 µL/well, and the plate was incubated at room temperature for 1 h. After the plate was washed with the washing buffer, a horseradish peroxidase (HRP)-conjugated secondary antibody was added, and the plate was incubated for another 60 min. After the plate was washed with the washing buffer, the substrate TMB solution (Thermo, 00-4201-56) was added at 100 µL/well, and the plate was incubated at room temperature for 2 min. A stop solution (2 N H₂SO₄) was added at 100 µL/well to terminate the reactions. Colorimetric signals were generated and read at 450 nm using a microplate reader (PE, Envision). The data were analyzed using GraphPad Prism5, and the EC₅₀ values were calculated.
The humanized antibodies hz31C81-1.1 (the amino acid sequence of the heavy chain set forth in SEQ ID NO: 75 and the amino acid sequence of the light chain set forth in SEQ ID NO: 81) and hz31C8-1.2 (the amino acid sequence of the heavy chain set forth in SEQ ID NO: 77 and the amino acid sequence of the light chain set forth in SEQ ID NO: 81) were subjected to affinity, binding, blocking and cell function analyses using the methods described in Example 4, Example 5, Example 6, Example 7, Example 8, Example 9 and Example 10.

[2] = molecular target: T1, recombinant protein containing hST2 …; experiment: ELISA, plate coated with hST2-ECD-mFc, antibody not heated
Description: The anti-ST2 antibodies were diluted with PBS buffer to a concentration of 1.5 mg/mL. […], the samples were assayed by ELISA for their binding activity for an antigen The ELISA procedure is as follows: A 96-well plate was coated with 2 µg/mL hST2-ECD-mFc as the antigen at 100 µL/well and incubated at 4° C. overnight. After the antigen not adsorbed was well washed off, the non-specific binding sites were blocked with a blocking buffer (PBST containing 1% bovine serum albumin). After the plate was washed three times with a washing buffer (PBST, PBS containing 0.05% (v/v) Tween 20), the anti-ST2 antibodies (serially diluted 3-fold from an initial concentration of 1.5 µg/mL to 8 concentrations) were added at 100 µL/well, and the plate was incubated at 37° C. for 1 h. […] After the plate was incubated at room temperature for 5 min, a stop solution (2 N H₂SO₄) was added to stop the reactions. The signals were read at 450 nm using a plate reader (PE, Envision). The data were analyzed using GraphPad Prism5, and the EC₅₀ values were calculated.

[3] = molecular target: T1, recombinant protein containing hST2 …; experiment: ELISA, plate coated with hST2-ECD-mFc, antibody heated at 72 °C for 5 min
Description: The anti-ST2 antibodies were diluted with PBS buffer to a concentration of 1.5 mg/mL. After being treated at 72° C. for 5 min, the samples were assayed by ELISA for their binding activity for an antigen The ELISA procedure is as follows: A 96-well plate was coated with 2 µg/mL hST2-ECD-mFc as the antigen at 100 µL/well and incubated at 4° C. overnight. After the antigen not adsorbed was well washed off, the non-specific binding sites were blocked with a blocking buffer (PBST containing 1% bovine serum albumin). After the plate was washed three times with a washing buffer (PBST, PBS containing 0.05% (v/v) Tween 20), the anti-ST2 antibodies (serially diluted 3-fold from an initial concentration of 1.5 µg/mL to 8 concentrations) were added at 100 µL/well, and the plate was incubated at 37° C. for 1 h. […] After the plate was incubated at room temperature for 5 min, a stop solution (2 N H₂SO₄) was added to stop the reactions. The signals were read at 450 nm using a plate reader (PE, Envision). The data were analyzed using GraphPad Prism5, and the EC₅₀ values were calculated.

B1: Humanized 31C8-1.1 (antibody, human IgG2, kappa, V domains shown)
VH: EVQLVQSGAEVKKPGATVKISCKASGYIFIDSEMHWVQQAPGKGLEWMGAIDPETGDTVYAEKFQGRVTITADKSSSTAYMELSSLRSEDTAVYYCTGSTTDYYFAYWGQGTLVTVSS
VL: DIQMTQSPSSLSASVGDRVTITCRSSKSLLHSNGIIYLYWYQQKPGKAPKLLIYQLSNLASGVPSRFSSSGSGTDFTLTISSLQPEDFATYYCAQNLELPFTFGQGTKVEIKR
notes: also called hz31C8-1.1; hz31C81-1.1
EC50 [1]: 87.9 pM | EC50 [2]: 90.6 pM | EC50 [3]: 96.8 pM

B3: Chimeric 31C8 (antibody, human IgG2, kappa, V domains shown)
VH: QVQLQQSGPELVRPGASVTLSCKASGYIFIDSEMHWVKQTPVHGLEWIGAIDPETGDTVYNQKFKGKATLTADKSSSTASMELSSLTSEDSAVYYCTGSTTDYYFAYWGQGTTLTVSS
VL: DIVMTQAAFSNPVTLGTSASISCRSSKSLLHSNGIIYLYWYLQKPGQSPQLLIYQMSNLASGVPDRFSSSGSGTDFTLRISRVEAEDVGVYYCAQNLELPFTFGSGTKLEIKR
notes: also called xi31C8
EC50 [1]: 86.5 pM | EC50 [2]: 74.4 pM | EC50 [3]: 86.3 pM

B4: GSK3772847 (antibody STLM208 in CN104411333, prepared in-house) (antibody, human IgG2, kappa, V domains shown)
VH: EVQLLESGGGLVQPGGSLRLSCAASGFTFSIYDMIWVRQAPGKGLEWVSSIRGEGGGTYYADSVKGRFTISRDNSKNTLYLQMNSLRAEDTAVYYCARDPWSTEGSFFVLDYWGQGTLVTVSS
VL: EIVLTQSPATLSLSPGERATLSCRASQSVDDDLAWYQQKPGQAPRLLIYDASNRATGIPARFSGSGSGTDFTLTISSLEPEDFAVYYCQQYITAPLTFGQGTKVEIKR
notes: Control anti-ST2 antibody
EC50 [1]: 127 pM | EC50 [2]: 109 pM | EC50 [3]: 188 pM

The remaining lines, values ahead:

EC50 [1]: 93.7 pM | EC50 [2]: 92 pM | EC50 [3]: 110 pM
B2: Humanized 31C8-1.2 (antibody, human IgG2, kappa, V domains shown)
VH: B1 VH with E1Q, E10K, E62K, Q65K
VL: B1 VL
notes: also called hz31C8-1.2; hz31C81-1.2

EC50 [1]: 112 pM | EC50 [2]: 143 pM
B5: RG6149 (antibody Ab2 in CN104334582, prepared in-house) (antibody, human IgG2, kappa, V domains shown)
VH: EVQLVQSGAEVKKPGESLKISCKGSGYSFTNYWIGWVRQMPGKGLEWMGIIYPGNSDTRFSPSFQGQVTISADKSITTAYLQWSSLKASDTAMYYCARHGTSSDYYGLDVWGQGTTVTVSS
VL: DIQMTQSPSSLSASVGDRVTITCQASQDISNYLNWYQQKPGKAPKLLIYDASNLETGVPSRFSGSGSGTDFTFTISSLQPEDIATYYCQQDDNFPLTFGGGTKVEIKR
notes: Control anti-ST2 antibody

— US20230272086A1 (CHIA TAI TIANQING PHARMACEUTICAL GROUP, published 2023)
